Source: patent US20150203577A1 (Chugai, published 2015)
Positions count from the first letter of the chain named.

T1: mouse FcγRIII extracellular domain, C-terminal His tag (mouse, UniProt P08508 31-215)
T1 construct: also called mFcγRIII; mFcgRIII
T1 chain: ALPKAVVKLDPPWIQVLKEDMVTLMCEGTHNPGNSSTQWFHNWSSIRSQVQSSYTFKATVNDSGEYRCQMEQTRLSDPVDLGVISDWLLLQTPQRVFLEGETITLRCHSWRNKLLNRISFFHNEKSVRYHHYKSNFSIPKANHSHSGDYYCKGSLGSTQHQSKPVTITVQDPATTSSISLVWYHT

T2: mouse FcγRII extracellular domain, C-terminal His tag (mouse, UniProt P08101 30-210)
T2 construct: also called mFcγRII; mFcgRII
T2 sequence: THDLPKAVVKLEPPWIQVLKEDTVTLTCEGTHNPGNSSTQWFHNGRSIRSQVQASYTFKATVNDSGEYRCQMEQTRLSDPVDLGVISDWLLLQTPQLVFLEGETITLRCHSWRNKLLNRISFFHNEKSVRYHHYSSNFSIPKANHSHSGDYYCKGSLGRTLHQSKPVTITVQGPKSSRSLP

B1: H237-MB773/MRAL-k0 (antibody, mouse IgG1, kappa)
heavy: QVQLQESGPGLVKPSETLSLTCAVSGHSISHDHAWSWVRQPPGEGLEWIGFISYSGITNYNPSLQGRVTISRDNSKNTLYLQMNSLRAEDTAVYYCARSLARTTAMDYWGEGTLVTVSSAKTTPPSVYPLAPGSAAQTNSMVTLGCLVKGYFPEPVTVTWNSGSLSSGVHTFPAVLQSDLYTLSSSVTVPSSTWPSETVTCNVAHPASSTKVDKKIVPRDCGCKPCICEPNEVELVFIFPPKPKDVLTITLTPKVTCVVVDISKDDPEVQFSWFVDDVEVHTAQTQPREEQFNSTFRSVSELPIMHQDWLNGKEFKCRVNSAAFPAPIYKTISKTKGRPKAPQVYTIPPPKEQMAKDKVSLTCMITDFFPEDITVEWQWNGQPAENYKNTQPIMDTDGSYFVYSKLNVQKSNWEAGNTFTCSVLHEGLHNHHTEKSLSHSPGK
light: not shown
notes: copies: 2 + 2
B2: H237-MB780/MRAL-k0 (antibody, mouse IgG1, kappa)
heavy: B1 heavy with A323G, Y329E
light: not shown
notes: copies: 2 + 2
B3: H237-MB812/MRAL-k0 (antibody, mouse IgG1, kappa)
heavy: B1 heavy with N320D, A323G, Y329E
light: not shown
notes: copies: 2 + 2
B4: H237-MB791/MRAL-k0 (antibody, mouse IgG1, kappa)
heavy: B1 heavy with Q291L, N320D, A322D, Y329E, K330R
light: not shown
notes: copies: 2 + 2
B5: H237-MB787/MRAL-k0 (antibody, mouse IgG1, kappa)
heavy: B1 heavy with Q291L, N320D, A322D, Y329E
light: not shown
notes: copies: 2 + 2
B6: H237-MB776/MRAL-k0 (antibody, mouse IgG1, kappa)
heavy: B1 heavy with Y329E, T331Y
light: not shown
notes: copies: 2 + 2
B7: H237-MB810/MRAL-k0 (antibody, mouse IgG1, kappa)
heavy: B1 heavy with Q291L, P327Y, Y329E
light: not shown
notes: copies: 2 + 2
B8: H237-MB813/MRAL-k0 (antibody, mouse IgG1, kappa)
heavy: B1 heavy with N320D, P327F, Y329E
light: not shown
notes: copies: 2 + 2
B9: H237-MB788/MRAL-k0 (antibody, mouse IgG1, kappa)
heavy: B1 heavy with Q291L, N320D, Y329E, K330R
light: not shown
notes: copies: 2 + 2
B10: H237-MB785/MRAL-k0 (antibody, mouse IgG1, kappa)
heavy: B1 heavy with N320D, A322D, Y329E
light: not shown
notes: copies: 2 + 2
B11: H237-MB809/MRAL-k0 (antibody, mouse IgG1, kappa)
heavy: B1 heavy with Q291L, P327F, Y329E
light: not shown
notes: copies: 2 + 2
B12: H237-MB817/MRAL-k0 (antibody, mouse IgG1, kappa)
heavy: B1 heavy with N320M, A323G, Y329E
light: not shown
notes: copies: 2 + 2
B13: H237-MB807/MRAL-k0 (antibody, mouse IgG1, kappa)
heavy: B1 heavy with Q291L, N320M, Y329E
light: not shown
notes: copies: 2 + 2
B14: H237-MB821/MRAL-k0 (antibody, mouse IgG1, kappa)
heavy: B1 heavy with N320M, Y329E, K330R
light: not shown
notes: copies: 2 + 2
B15: H237-MB783/MRAL-k0 (antibody, mouse IgG1, kappa)
heavy: B1 heavy with Q291L, A322D, Y329E
light: not shown
notes: copies: 2 + 2
B16: H237-MB818/MRAL-k0 (antibody, mouse IgG1, kappa)
heavy: B1 heavy with N320M, P327F, Y329E
light: not shown
notes: copies: 2 + 2
B17: H237-MB779/MRAL-k0 (antibody, mouse IgG1, kappa)
heavy: B1 heavy with Y329E, S333W
light: not shown
notes: copies: 2 + 2
B18: H237-MB822/MRAL-k0 (antibody, mouse IgG1, kappa)
heavy: B1 heavy with A322D, A323G, Y329E
light: not shown
notes: copies: 2 + 2
B19: H237-MB784/MRAL-k0 (antibody, mouse IgG1, kappa)
heavy: B1 heavy with Q291L, Y329E, K330R
light: not shown
notes: copies: 2 + 2
B20: H237-MB782/MRAL-k0 (antibody, mouse IgG1, kappa)
heavy: B1 heavy with Q291L, N320D, Y329E
light: not shown
notes: copies: 2 + 2
B21: H237-MB824/MRAL-k0 (antibody, mouse IgG1, kappa)
heavy: B1 heavy with A322D, P327Y, Y329E
light: not shown
notes: copies: 2 + 2
B22: H237-MB815/MRAL-k0 (antibody, mouse IgG1, kappa)
heavy: B1 heavy with N320D
light: not shown
notes: copies: 2 + 2
B23: H237-MB808/MRAL-k0 (antibody, mouse IgG1, kappa)
heavy: B1 heavy with Q291L, A323G, Y329E
light: not shown
notes: copies: 2 + 2
B24: H237-MB816/MRAL-k0 (antibody, mouse IgG1, kappa)
heavy: B1 heavy with N320M, A322D, Y329E
light: not shown
notes: copies: 2 + 2
B25: H237-MB786/MRAL-k0 (antibody, mouse IgG1, kappa)
heavy: B1 heavy with A322D, Y329E, K330R
light: not shown
notes: copies: 2 + 2
B26: H237-MB819/MRAL-k0 (antibody, mouse IgG1, kappa)
heavy: B1 heavy with N320M, P327Y, Y329E
light: not shown
notes: copies: 2 + 2
B27: H237-MB789/MRAL-k0 (antibody, mouse IgG1, kappa)
heavy: B1 heavy with Q291L, A322D, Y329E, K330R
light: not shown
notes: copies: 2 + 2
B28: H237-MB814/MRAL-k0 (antibody, mouse IgG1, kappa)
heavy: B1 heavy with N320D, P327Y, Y329E
light: not shown
notes: copies: 2 + 2
B29: H237-MB823/MRAL-k0 (antibody, mouse IgG1, kappa)
heavy: B1 heavy with A322D, P327F, Y329E
light: not shown
notes: copies: 2 + 2
B30: H237-MB825/MRAL-k0 (antibody, mouse IgG1, kappa)
heavy: B1 heavy with A322D
light: not shown
notes: copies: 2 + 2
B31: H237-MB811/MRAL-k0 (antibody, mouse IgG1, kappa)
heavy: B1 heavy with Q291L
light: not shown
notes: copies: 2 + 2
B32: H237-MB820/MRAL-k0 (antibody, mouse IgG1, kappa)
heavy: B1 heavy with N320M
light: not shown
notes: copies: 2 + 2
B33: H237-MB790/MRAL-k0 (antibody, mouse IgG1, kappa)
heavy: B1 heavy with N320D, A322D, Y329E, K330R
light: not shown
notes: copies: 2 + 2

Target: T1, mouse FcγRIII extracellular domain, …
Experiment: SPR (Biacore T200), antibody captured on Protein L, mFcγR analyte

| Kd [µM] | relative mFcγRIII-binding activity (mIgG1 = 1) | Binder |
| --- | --- | --- |
| 1.31 | 0.2 fold vs H237-mIgG1/MRAL-k0 | B1 |
| 0.716 | 0.4 fold vs H237-mIgG1/MRAL-k0 | B2 |
| 0.418 | 0.7 fold vs H237-mIgG1/MRAL-k0 | B3 |
| 0.256 | 1.1 fold vs H237-mIgG1/MRAL-k0 | B4 |
| 0.295 | 1 fold vs H237-mIgG1/MRAL-k0 | B5 |
| 1.43 | 0.2 fold vs H237-mIgG1/MRAL-k0 | B6 |
| 0.546 | 0.5 fold vs H237-mIgG1/MRAL-k0 | B7 |
| 0.951 | 0.3 fold vs H237-mIgG1/MRAL-k0 | B8 |
| 0.475 | 0.6 fold vs H237-mIgG1/MRAL-k0 | B9 |
| 0.577 | 0.5 fold vs H237-mIgG1/MRAL-k0 | B10 |
| 0.638 | 0.4 fold vs H237-mIgG1/MRAL-k0 | B11 |
| 0.539 | 0.5 fold vs H237-mIgG1/MRAL-k0 | B12 |
| 0.579 | 0.5 fold vs H237-mIgG1/MRAL-k0 | B13 |
| 0.625 | 0.5 fold vs H237-mIgG1/MRAL-k0 | B14 |
| 0.378 | 0.7 fold vs H237-mIgG1/MRAL-k0 | B15 |
| 0.979 | 0.3 fold vs H237-mIgG1/MRAL-k0 | B16 |
| 1.61 | 0.2 fold vs H237-mIgG1/MRAL-k0 | B17 |

| Kd [µM] | relative mFcγRIII-binding activity (mIgG1 = 1) | Binder |
| --- | --- | --- |
| 0.304 | 0.9 fold vs H237-mIgG1/MRAL-k0 | B18 |
| 0.734 | 0.4 fold vs H237-mIgG1/MRAL-k0 | B19 |
| 0.567 | 0.5 fold vs H237-mIgG1/MRAL-k0 | B20 |
| 0.5 | 0.6 fold vs H237-mIgG1/MRAL-k0 | B21 |
| 0.938 | 0.3 fold vs H237-mIgG1/MRAL-k0 | B22 |
| 0.359 | 0.8 fold vs H237-mIgG1/MRAL-k0 | B23 |
| 0.431 | 0.7 fold vs H237-mIgG1/MRAL-k0 | B24 |
| 0.493 | 0.6 fold vs H237-mIgG1/MRAL-k0 | B25 |
| 0.872 | 0.3 fold vs H237-mIgG1/MRAL-k0 | B26 |
| 0.343 | 0.8 fold vs H237-mIgG1/MRAL-k0 | B27 |
| 0.826 | 0.3 fold vs H237-mIgG1/MRAL-k0 | B28 |
| 0.575 | 0.5 fold vs H237-mIgG1/MRAL-k0 | B29 |
| 0.564 | 0.5 fold vs H237-mIgG1/MRAL-k0 | B30 |
| 0.654 | 0.4 fold vs H237-mIgG1/MRAL-k0 | B31 |
| 0.854 | 0.3 fold vs H237-mIgG1/MRAL-k0 | B32 |
| 0.402 | 0.7 fold vs H237-mIgG1/MRAL-k0 | B33 |

target: T2, mouse FcγRII extracellular domain, …; experiment: as above

| Kd [µM] | relative mFcγRII-binding activity (mIgG1 = 1) | Binder |
| --- | --- | --- |
| 0.0165 | 12.7 fold vs H237-mIgG1/MRAL-k0 | B1 |
| 0.0104 | 20.2 fold vs H237-mIgG1/MRAL-k0 | B2 |
| 0.00628 | 33.4 fold vs H237-mIgG1/MRAL-k0 | B3 |
| 0.00523 | 40.1 fold vs H237-mIgG1/MRAL-k0 | B4 |
| 0.00545 | 38.5 fold vs H237-mIgG1/MRAL-k0 | B5 |
| 0.0186 | 11.3 fold vs H237-mIgG1/MRAL-k0 | B6 |
| 0.0101 | 20.8 fold vs H237-mIgG1/MRAL-k0 | B7 |
| 0.0129 | 16.3 fold vs H237-mIgG1/MRAL-k0 | B8 |
| 0.00938 | 22.4 fold vs H237-mIgG1/MRAL-k0 | B9 |
| 0.00843 | 24.9 fold vs H237-mIgG1/MRAL-k0 | B10 |
| 0.0111 | 19 fold vs H237-mIgG1/MRAL-k0 | B11 |
| 0.00738 | 28.5 fold vs H237-mIgG1/MRAL-k0 | B12 |
| 0.00958 | 21.9 fold vs H237-mIgG1/MRAL-k0 | B13 |
| 0.0086 | 24.4 fold vs H237-mIgG1/MRAL-k0 | B14 |
| 0.00685 | 30.6 fold vs H237-mIgG1/MRAL-k0 | B15 |
| 0.0135 | 15.6 fold vs H237-mIgG1/MRAL-k0 | B16 |
| 0.021 | 10 fold vs H237-mIgG1/MRAL-k0 | B17 |

| Kd [µM] | relative mFcγRII-binding activity (mIgG1 = 1) | Binder |
| --- | --- | --- |
| 0.0048 | 43.8 fold vs H237-mIgG1/MRAL-k0 | B18 |
| 0.0143 | 14.7 fold vs H237-mIgG1/MRAL-k0 | B19 |
| 0.00988 | 21.3 fold vs H237-mIgG1/MRAL-k0 | B20 |
| 0.00751 | 28 fold vs H237-mIgG1/MRAL-k0 | B21 |
| 0.012 | 17.6 fold vs H237-mIgG1/MRAL-k0 | B22 |
| 0.00719 | 29.2 fold vs H237-mIgG1/MRAL-k0 | B23 |
| 0.0069 | 30.4 fold vs H237-mIgG1/MRAL-k0 | B24 |
| 0.00773 | 27.2 fold vs H237-mIgG1/MRAL-k0 | B25 |
| 0.0116 | 18.1 fold vs H237-mIgG1/MRAL-k0 | B26 |
| 0.0068 | 30.9 fold vs H237-mIgG1/MRAL-k0 | B27 |
| 0.0117 | 18 fold vs H237-mIgG1/MRAL-k0 | B28 |
| 0.00839 | 25 fold vs H237-mIgG1/MRAL-k0 | B29 |
| 0.00738 | 28.4 fold vs H237-mIgG1/MRAL-k0 | B30 |
| 0.00945 | 22.2 fold vs H237-mIgG1/MRAL-k0 | B31 |
| 0.0108 | 19.5 fold vs H237-mIgG1/MRAL-k0 | B32 |
| 0.00628 | 33.5 fold vs H237-mIgG1/MRAL-k0 | B33 |
